± gives the uncertainty stated by the source.
Assay: self-splicing fitness, log relative to wild type (ln ratio); higher = more splicing; Tetrahymena group I intron in knt gene, E. coli kanamycin selection, DiMSum; sequences stand for … in CUCUCU…GGAGGGAAAAGUUAUCAGGCAUGCACCUGGUAGCUAGUCUUUAAACCAAUAGAUUGCAUCGGUUUAAAAGGCAAGACCGUCAAAUUGCGGGAAAGGGGUCAACAGCCGUUCAGUACCAAGUCUCAGGGGAAACUUUGAGAUGGCCUUGCAAAGGGUAUGGUAAUAAGCUGACGGACAUGGUCCUAACCACGCAGCCAAGUCCUAAGUCAACAGAUCUUCUGUUGAUAUGGAUGCAGUUCACAGACUAAAUGUCGGUCGGGGAAGAUGUAUUCUUCUCAUAAGAUAUAGUCGGACCUCUCCUUAAUGGGAGCUAGCGGAUGAAGUGAUGCAACACUGGAGCCGCUGGGAACUAAUUUGUAUGCGAAAGUAUAUUGAUUAGUUUUGGAGUACUCGUGGUCG
Outline: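 The eight P1ex-region nucleotides of an intron in the knt kanamycin-resistance gene on pET-22b(+) were all randomised and the library put into E. coli BL21(DE3). Six replicate transformations were grown overnight at 37°C or 30°C on LB agar with or without 25 μg/mL kanamycin, together with 100 μg/mL carbenicillin, 50 μM IPTG and 0.2% rhamnose. Colonies were pooled and amplicon-sequenced on an Illumina HiSeq 2500. Fitness from DiMSum is the error-weighted combination of wild-type-normalised replicate fold changes, kanamycin over none.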

| Sequence | self-splicing fitness (ln) (30 °C) | self-splicing fitness (ln) (37 °C) |
| --- | --- | --- |
| ACGAAGCAAUAUUACGUAGA | -3.72 ± 0.24 | -2.89 ± 0.27 |
| ACGAAGCAAUAUUACGUGAC | -3.87 ± 0.26 | -1.12 ± 0.17 |
| ACGAAGCAAUAUUACGUUGG | -3.56 ± 0.16 | -2.38 ± 0.17 |
| ACGCAGCAAUAUUACGAUCA | -1.66 ± 0.099 | -1.26 ± 0.093 |
| ACGCAGCAAUAUUACGAUCU | -0.427 ± 0.063 | 0.356 ± 0.091 |
| ACGCAGCAAUAUUACGAUUA | -1.54 ± 0.091 | -0.902 ± 0.079 |
| ACGCAGCAAUAUUACGCAGC | -3.49 ± 0.18 | -2.16 ± 0.25 |
| ACGCAGCAAUAUUACGCCAC | – | -3.22 ± 0.37 |
| ACGCAGCAAUAUUACGCCCA | -0.672 ± 0.096 | -0.153 ± 0.12 |
| ACGCAGCAAUAUUACGCGAU | -3.38 ± 0.16 | -2.22 ± 0.16 |
| ACGCAGCAAUAUUACGCGGG | -2.94 ± 0.12 | -0.419 ± 0.099 |
| ACGCAGCAAUAUUACGCUAU | -1.25 ± 0.077 | -0.724 ± 0.11 |
| ACGCAGCAAUAUUACGCUUC | -2.75 ± 0.26 | -2.48 ± 0.22 |
| ACGCAGCAAUAUUACGGAAC | -3.67 ± 0.2 | -1.78 ± 0.17 |
| ACGCAGCAAUAUUACGGAAU | -2.27 ± 0.1 | -2.07 ± 0.14 |
| ACGCAGCAAUAUUACGGCGC | -3.39 ± 0.14 | -1.63 ± 0.11 |
| ACGCAGCAAUAUUACGGCGG | -2.14 ± 0.074 | -1.91 ± 0.14 |
| ACGCAGCAAUAUUACGGGCG | -1.5 ± 0.063 | -1.3 ± 0.072 |
| ACGCAGCAAUAUUACGGGUA | -2.46 ± 0.11 | -1.37 ± 0.087 |
| ACGCAGCAAUAUUACGGUGC | -2.18 ± 0.15 | – |
| ACGCAGCAAUAUUACGGUGG | -2.52 ± 0.11 | -1.17 ± 0.11 |
| ACGCAGCAAUAUUACGGUUG | -3.89 ± 0.2 | -1.85 ± 0.14 |

| Sequence | self-splicing fitness (ln) (30 °C) | self-splicing fitness (ln) (37 °C) |
| --- | --- | --- |
| ACGCAGCAAUAUUACGUAAC | -3.99 ± 0.22 | -2.37 ± 0.23 |
| ACGCAGCAAUAUUACGUAAG | -0.0743 ± 0.099 | -1.27 ± 0.13 |
| ACGCAGCAAUAUUACGUCGU | -3.77 ± 0.26 | -1.6 ± 0.21 |
| ACGCAGCAAUAUUACGUGGU | -4.06 ± 0.12 | -2.58 ± 0.091 |
| ACGCAGCAAUAUUACGUUGA | -1.43 ± 0.11 | -1.73 ± 0.11 |
| ACGCAGCAAUAUUACGUUUC | -3.87 ± 0.2 | -2.61 ± 0.25 |
| ACGGAGCAAUAUUACGACGG | -1.46 ± 0.1 | 0.14 ± 0.12 |
| ACGGAGCAAUAUUACGAUAG | -3.57 ± 0.29 | -3.09 ± 0.34 |
| ACGGAGCAAUAUUACGAUGG | -3.63 ± 0.32 | -0.86 ± 0.27 |
| ACGGAGCAAUAUUACGCCAA | -3.46 ± 0.33 | -3.34 ± 0.47 |
| ACGGAGCAAUAUUACGCGCU | -3.23 ± 0.3 | -1.17 ± 0.21 |
| ACGGAGCAAUAUUACGCGGU | -2.86 ± 0.25 | -1.03 ± 0.31 |
| ACGGAGCAAUAUUACGCGUC | – | -1.92 ± 0.33 |
| ACGGAGCAAUAUUACGCUAC | -3.07 ± 0.33 | -2.06 ± 0.39 |
| ACGGAGCAAUAUUACGGACG | -1.96 ± 0.19 | -1.17 ± 0.22 |
| ACGGAGCAAUAUUACGGCUG | -2.87 ± 0.12 | -1.26 ± 0.13 |
| ACGGAGCAAUAUUACGGGUA | -2.34 ± 0.25 | -3.02 ± 0.32 |
| ACGGAGCAAUAUUACGGUUA | -2.6 ± 0.23 | -2.2 ± 0.15 |
| ACGGAGCAAUAUUACGUAAG | -3.18 ± 0.2 | -1.82 ± 0.24 |
| ACGGAGCAAUAUUACGUCAC | -3.48 ± 0.31 | -2.42 ± 0.45 |
| ACGGAGCAAUAUUACGUCGC | -2.93 ± 0.24 | -1.42 ± 0.18 |

From the supplement of paper PMC7877785
